Measured values: the nanobody polyreactivity screen of Harvey et al. (2022)

Assay: yeast display, Sf9 membrane polyspecificity reagent, FACS + sequencing; frameworks hold sequencing errors
Summary of the method: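 Galactose induction of a Saccharomyces cerevisiae BJ5465 synthetic nanobody display library ran 36–48 hours. The cells were then stained for 1 hour at 4 °C with 10% biotinylated, detergent-solubilized Sf9 membrane reagent, pulled down on streptavidin microbeads and FACS-sorted into low and high (top ~1%) gates on expression and reagent-binding fluorescence. Labels for polyreactivity follow the gate of origin.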

| Sequence | polyreactivity (PSR sort gate) |
| --- | --- |
| QVQHVESGGGLVQAGGSLSLSCAASARTFRRNVMGLYRQAPGKERELVAAISYGANTNYADSVKGRFTISRDNAKNTVYLQMNSLKPEDTAVYYCAAGEGWRSRTFDYWGQGTQVTVSS | low polyreactivity |
| QVQLVESGGGLVQAGGSLRLSCASSGRTFLHNAMGWYRQAPGKERELVAAISSRGGSTYYADSVKGRFTISRDNAKNTVYLQMNSLKPEDTAVYYCAADLVVYRYDYWGQGTQVTVSS | high polyreactivity |
| QVQLVESGGGLVQAGGSLRLSCAASGSILSYYAMGWYRQAPGKERELVAAISKTGGRTYYADSVKGRFTISRDNAKNTVYLQMNSLKPEDTAVYYCAAVDTIGRYDYWGQGTQVTVSS | high polyreactivity |
| QVQLVESGGGLVQAGGSLRLSCAASGRTFRYNAMGWYRQAPGKERELVAAISRSGGRTYYADSVKGRFTISRDNAKNTVYLQMNSLKPEDTAVYYCNAAPSWSTSFDSWGQGTQVTVSS | high polyreactivity |
| QVQLVESGGGLVQAGGSLRLSCAASGFTFQFYAMGWSRPAPGKERELVAAITWSGGSTYYADSVKGRFTISRDNAKNTVYLQMNSLKPEDTAVYYCAKDRRSYLSYIYDYWGQGTQVNVSS | high polyreactivity |
| QVQLVESGGGLVQAGGRLRLSCAASGRTIANYAMGWYRQAPGKERELVAAISFSTVSTYYADSVKGRFTISRDNAKNTVYLQMNSLKPEDTAVYYCAARRLGYYRKVKELDYWGQGTQVTVSS | high polyreactivity |
| QVQLVESGGGLVQAGGSLRLSCAASGRIFAWNAMGWYRQAPGKERELVAAITRGTNTYYADSVKGRFTISRDNAKNTVYLQMNSLKPEDTAVYYCAARLPYNAIGYYYWGQGTQVTVSS | low polyreactivity |
| QVQLVESGGGLVQAGGSLRLICAASGRNCVYYAMGWYRQAPGKERELVAAITSGDSTYYADSVKGRFTISRDNAKNTVYLQMNSLKPEDTAVYYCAADHYYGSESGGFVIYYYWGQGTQVTVSS | low polyreactivity |
| QVQLVESGGGVVQAGGSLRLSCAASGRIFRYTMGWYRQAPGKETELVADITRHGGSTYYADSVKGRFTISRDNAKNTVYLQMNSLKPEDTAVYYCAADHLSYRRRYEYWGQGTQVTVSS | low polyreactivity |
| QVQLVESGGGLVQAGGSLRLSCAASGRTFRRNAMGWYRQAPGKERELVASINRGGGTNYADSVKGRFTISRDNAKNTVYLQMNSLKPEDTAVYYCAAGPGTYWGYDYWGQGTQVTVSS | low polyreactivity |
| QVQLVESGGGLVQAGGSLRLSCAASGSIIVWNAMGWYRQAPGKERELVASITSGASTYYADSVKGRFTISRDNAKNTVYLQMNSLKPEDTAVYFCAAYYGYTDVWYLYSGYNYWGQGTQVTVSS | low polyreactivity |
| QLQLVESGGGLVQAGGSLRLSCAPSGSIFLNYAMGWYRQAPGKERELVATIRRRGGSTYSADSVKGRFTISRDNAKNTVYLQMNSLKPDDTAVYYCNAEQLVSRARPYDYWGQGTLVTVSS | high polyreactivity |
| QVQLVESGGGLVQAGGSLRLSCAASGRTFAYNAMGWYRQAPGKEREMVASITSGGSTNYADSVKGRFTISRDNAKNNVYLQINSLIPEDTAVYYCNIDGKYHLVLYDYWGQGTQVTVSS | low polyreactivity |
| QVQLVESGGGLVHAGGSLRLSCAASGFIFPWYAMGWSRQAPGKERELVAIISWDTGSTYYADSVKGRFTISRDNAKNTVYLQINRLKPEDSAVYYCVAYVGSTYSAPEYYWGQGTQVTVSS | low polyreactivity |
| QVQLVESGGGLVQAGGSLRLSCAASGLTFQSYDMGWYRPAPGKERELVAAISRRGGSTYYADSVKGRFTISRDNAKNTVYLQLNSLKPEDTAVYYCAAETYYTYWPYGMGYWGQGTQVTVSS | high polyreactivity |
| QVQLVESGGGLVQAGGSLRLSWAASGFIFVSNAMGWYRQAPGKERELVAAITSGDNTKYADSVKGRFTISRDNAKNTVYLQMNSLKPEDTAVYYCAVTNRYQGAGYYWGQGTQVTVSS | low polyreactivity |
| QVQLVESGGGLVKAGGSLRLSSAATGSTFWEYVMGWYRQPPGKERELVAAITTNDDSTYYADSVKGRFTISRDNAKKTVYLQMNSLKPEDTAVYYCNADQITGQFDYWGQGTQVTVSS | low polyreactivity |
| QVQLVESGGGLVQAGGSLRLSCDASGSIFIANAMGWYRQAPGKEREFVAAINWSRGSTYYADSVKGRFTISRDNAKNTVYLQMNSLKPEDTAVYYCNAASLKFTSPVRFGYWGQGTQVTVSS | high polyreactivity |
| QDQLVESGGGLVQAGGSLSLSCAASGRTFYWYVMGWYRQAPGKERELVAAITQTGSSSYYADSVKGRFTISRDNAKNTVYLQMNSLKPEDTAVYYCADRLSRNHYEVDYWGQGTQVTVSS | low polyreactivity |
| QVQLVESGGGLVQAGGSLRLSCAASGSTFYSNAMGWYRQAPGKERELVAAITDGDRTNYADSVKGRFTISRDNAKNTVYLQMNSLKPEDTAVYYCAADYAVYLGVSPDYGYWGQGTQVTVSS | low polyreactivity |
| QVQLVESGGGLVQAGGSLRLSCAASGSIFWPYTMGWYRQAPGKEWELVAAITSTDSTDYADSVKGRFTISRDNAKNTVYLQMNSLKPEDTAVYYCNADYQSRTGSVIYTAHPYDYWGQGTQVTVSS | low polyreactivity |
| QVQLVESGGGLVQAGGRHRLSCAPSASIFSVNAMGWYRQAPGKERELVAAISWRGASTYYADSVKGRFTISRDNPKNTVYLQMNSLKPEDTAVYYCAAKGTGGDQYYAFDYWGQGTQVTVSS | low polyreactivity |

| Sequence | polyreactivity (PSR sort gate) |
| --- | --- |
| QVQLVESGGGLVQAGGSLRLSCPASGLIFVDNAMGWYRQAPGKERELVAAIDSGGSTNYADSVKGRFTISRDNAKNTVYLQMNRLQPEDTAVYYCAADGIYAPWYYQESVEYYFWGQGTQVTVSS | low polyreactivity |
| QVQLVESGGGLVQAGGSLRLSCAASGSTFHLNAMGWYRQAPGKERELVAAISWDGSSTSYADSVKGRFTISRDNAKNTVYLQMNSLKPEDTAVYYCAKRSSGVSVPVAYGGIKRYNSWGQGTQVTVSS | low polyreactivity |
| QVQLVESGGGLVQAGGSLRLSCAASGRTFDLYAMGWYRQAPGKERELVAAITKGGGSTYYADSVKGRFTLSRDNAKNTVYLQMHSLKPVDTAVYYCAARKYKRIYRISSGIGYYWGQGTQVTVSS | high polyreactivity |
| QVQLVESGGGLVQAGGSLRLSCAASGSIFRPYAMGWYRQAPGKERELVATITWRGGSTTYADSVKGRFTISRDNAKNTVYLQMNSLKPEDTAVYYCAADASWELFAWAHYDYWGQGTQVTVSS | low polyreactivity |
| QVQLVESGGGLVQAGGSLRLSCAASGSIFKYYAMGWYRQAPGKERELVAAITSSGARTYYADSVKGRFTISRDNAKNTVYLQMNSLKPEDTAVYYCRGYVRDQSKYDYWGQGTQVTVSS | high polyreactivity |
| QVQLVESGGGLVQAGGSLRLSCAASGSIFAYYAMGWYRQAPGKERELVAVIRSGGSTYYADSVKGRFTISRDNEKNTVYLQMNSLNPEDTAVYYCAAPSYRPSRGDYWGQGTQVTVSS | high polyreactivity |
| QVQLVESGGGLVQAGGSLRLSCAASGSILGLYAMGWYRQAPEKERELVAGISSGGNTNYADSVKGRFTISRDNAKNTVYLQMNSLKPEDTAVYYSYDRIYRHYSTYSWTRYDYWGEGTQVTVSS | high polyreactivity |
| QVQLVESAGGLVQAAGSLRLSCDASGFIFGTNAMGWYRQAPGKERELVAAINGRGGGTYYADSVKGRFTISRDNAKNTVYLQMNSLKPEDTAVYYCAASRFDYWGQGTQVTVSS | low polyreactivity |
| QVQLVESGGGLVQAGGSLRLSCAASGIIFGYYAMGWYRQAPGKERELVAAIDWTGGNTYYAVSVKGRFTISRDNAKNTVYLQMNSLKPEDTAVYYCAADYNSQEDYWGQGTQVTVSS | low polyreactivity |
| QVQLVESGGGLVQAGGSLRLSCAASGRIFRINAMGWYRQAPGKEMELVASSSRRGGNTYYADSVKGRFTISRDNAKNTVYLQMNSLKPEDTAVYYCAADTNQERTFDYWGQGTQVTVSS | low polyreactivity |
| QVQLVESGGGFVQAGGSLRLSFAASGFTFGRYAMGWYIQAPGKERELVAAISWSDGSTYYADSVKGRFTISRDNAKNTVYLQMNSLKPQDTAVYYCAARYGGGISQAKYYYWGQGTQVTVSS | high polyreactivity |
| QVHLVESWGGLVQAGGSLRLICAASGSTFYANAMGWYRQAPGKERQLVAAITRSRRSTYYADSVKGRFTISRDNAKNTVYLQMNSLKRVDTAVYYFSARRVRDRVRYDYCGQGTQVTVSS | high polyreactivity |
| QVQLVESGGGLVQAGGSLRLSCAASGFTISRYAIGWYRQAPGKERELVAAITGSGGSTYYADSVKGRFTISRDNAKNTVYLQMNSLKPEDTAVYYCNTLKHYKREYDYWGQGTQVTVSS | high polyreactivity |
| QVQLVESGGGLVQAGGSLRLSCAASGSTLNYYAMGWYRQAPGKERELVATIDKSGGSTRYADSVKGRFTISRDNAKNTVYLQMNSLKPEDTAVYYCAVDSPYQHDDYWGQGTQVTVSS | low polyreactivity |
| QVQLVESGGGLVQAGGSLRLSCPASGRTFWYYAMGWYRQAPGKVRELVAAITWSGSDTYYADSVKGRFTISRDNAKNTVYVQMNSLKPEDTAVYFCAAEYYYESSGYDYWGQGTQVTVSS | high polyreactivity |
| QVQLVESGGGLVQAGGSLRLSCAASGRIFSWNTMGWYRQAPGKERELVAAISSSDGSTYYADSVKGRFTISRDNAKNTVYLQMNSVKPEDTAVYYCNKVVSRWNQRWRYSEGNYWGQGTQVTVSS | high polyreactivity |
| QVQLVESGGGLVQAGCSLRLSSAASGSIFWVNAMGWYRQAPGQERELVAAITWSAGSTYYADSVKGRFTISRDNAKYTVYVEMNSLKPEDTAVYYCAAGGAWYYWTLDYWGLGTQVTVSS | low polyreactivity |
| QDQLVESGGGLVQAGGSLRLSCAASGSIFRYVMGWYRQAPGNERELVAAISIRGGSTYYADSVKGRFTISRDNAKNTVFFQMHSLKPEDTAVYYCAADRYRLGVKYDYWGQGTQVTVSS | high polyreactivity |
| QVQLVESGGGLVQAGGSLRLSCAASGRIFEVYTMGWYRQAPGKERELVAAIDRSTGSTYYADSVKGRFTISRDNAKNTVYLQMHSLKPEDTAVYYCAARGTFLGTRPLGRFDYWGQGTQVTVSS | low polyreactivity |
| QLQLQESGSGLEQAGGSLRLSCASSGYISLGDNMGWYRQAPGKEREFVATISVGGITYYVDSVKGRFTISRDIAKNTVYLQRNSLNPEDTAVYYCADLDIYYFRYYYWGQGTQVTVSS | low polyreactivity |
| QVQLVETGGGLVQAGGRLRLSCAASGSTFGSYAMGWYRQAPGKERELVATITESDGTTYYADSVKGSFTISRDNAKNTVYLQMNSLKREDTAVYYCAANYSGDRKRYWPGDTDDYWGQGTQVTVSS | high polyreactivity |
